The source of these data is patent US20230025572A1 (published 2023).

To fix the notation:
T1: MAGE-B5 peptide on HLA-A*02:01 (human)
T1 peptide: KVLEYLAKV

T2: MAGE-B16 peptide on HLA-A*02:01 (human)
T2 peptide: KVLEFVAKV

T3: MAGE-A1 peptide on HLA-A*02:01 (human)
T3 peptide: KVLEYVIKV

B1: TCR 1405 (TCR, V domains shown)
Valpha: GENVEQHPSTLSVQEGDSAVIKCTYSDSASNYFPWYKQELGKGPQLIIDIRSNVGEKKDQRIAVTLNKTAKHFSLHITETQPEDSAVYFCAARPNSGNTPLVFGKGTRLSVIA
Vbeta: SAVISQKPSRDICQRGTSLTIQCQVDSQVTMMFWYRQQPGQSLTLIATANQGSEATYESGFVIDKFPISRPNLTFSTLTVSNMSPEDSSIYLCSVEQDTNTGELFFGEGSRLTVL
B2: TCR 1367 (TCR, V domains shown)
Valpha: GEDVEQSLFLSVREGDSSVINCTYTDSSSTYLYWYKQEPGAGLQLLTYIFSNMDMKQDQRLTVLLNKKDKHLSLRIADTQTGDSAIYFCAESIGSNSGYALNFGKGTSLLVTP
Vbeta: DVKVTQSSRYLVKRTGEKVFLECVQDMDHENMFWYRQDPGLGLRLIYFSYDVKMKEKGDIPEGYSVSREKKERFSLILESASTNQTSMYLCASRGLAGYEQYFGPGTRLTVT
B3: TCR 1705 (TCR, V domains shown)
Valpha: QKEVEQDPGPLSVPEGAIVSLNCTYSNSAFQYFMWYRQYSRKGPELLMYTYSSGNKEDGRFTAQVDKSSKYISLFIRDSQPSDSATYLCAMSDTGNQFYFGTGTSLTVIP
Vbeta: AAGVIQSPRHLIKEKRETATLKCYPIPRHDTVYWYQQGPGQDPQFLISFYEKMQSDKGSIPDRFSAQQFSDYHSELNMSSLELGDSALYFCASSFRGGGANVLTFGAGSRLTVL

The first assay addresses T1, MAGE-B5 peptide on HLA-A*02:01. In words: cytokine release. The protocol: (§1) FIG. 18 T2 cells were loaded with 10-5 mol/l MAGE-A1278 (SEQ ID NO: 11) or the 2 most similar epitopes in the human proteome (MAGE-B16 and MAGE-B5, SEQ ID NOs: 54 and 55, respectively) differing in only 2 amino acids from MAGE-A1278 and co-cultured with TCR modified T cells. Functional response was assessed based on IFNγ production.
As for B1, the binding result is on record as “no recognition”.
The same measure, in the same setting: to B2 belongs “no recognition”; to B3, “no recognition”.

A further assay addresses T2, MAGE-B16 peptide on HLA-A*02:01. Put plainly: cytokine release. The protocol: as §1
Turning to B1, the binding result was “no recognition”.
Still for that read-out and setting: to B2 belongs “no recognition”; to B3, “no recognition”.

The target in the next assay is T3, MAGE-A1 peptide on HLA-A*02:01. In words: multimer staining.
For B1, the binding result is on record as “recognises”.
On the same count and under the same terms, as for B2, the entry is “recognises”; as for B3, “recognises”.
